Assay results reported in US20250144186A1, “NOVEL THERAPEUTIC USES OF GARDNERELLA ENDOLYSINS” (priority 2022, published 2025).
In brackets after ≈: the same amount, converted by molar mass. Where two headings read alike, the source gives them in different places.

Experiments:
G. swidsinskii biofilm = type: cell-based, Gardnerella swidsinskii
Experimental: (§1) Gardnerella spp. (see figures for strain specification) was resuspended in brain heart infusion broth supplemented with 2% (w/v) gelatin, 0.5% yeast extract (w/v), 0.1% starch (w/v) and 0.25% glucose (w/v) (sBHIG). Passaged strains were resuspended in unbuffered NYCB supplemented with 1% glucose (w/v) (sNYCB). The OD600 was set to 0.1 (approx. 10^7-10^8 CFU/mL) and the cell suspension was diluted 1:10 in growth medium as input for biofilm formation. A total of 200 μL of the respective bacterial suspensions was added to 96-well flat bottom plates (tissue-culture treated, Sigma-Aldrich). The biofilms were grown under anaerobic conditions at 37° C. for 40 to 72 hours, depending on the isolate. Subsequently, the supernatant was removed, and the biofilm was treated with antimicrobials dissolved in sBHIG (at pH 5 for treatment with PM-477 (H2B10), and unbuffered for treatment with antibiotics) in 100 μL and incubated anaerobically at 37° C. for another 24 hours. After the treatment, the biofilms were washed twice with 200 μL 1x PBS and dissolved by vigorous pipetting (40x up and down). Serial dilutions of the dissolved cells were spotted on chocolate agar plates. The plates were incubated anaerobically for two to three days and the minimum biofilm eradication concentration (MBEC) of the endolysin or the antibiotics in use were calculated.
(§2) Gardnerella dominated biofilms covering the human vaginal epithelial cells are now generally considered as a hallmark of BV. Thus, it was tested how effective antibiotics and PM-477 (H2B10) are in penetrating and killing in vitro pre-formed, 40-72 h old biofilms of various Gardnerella strains.

G. piotii biofilm = type: cell-based, Gardnerella piotii
Experimental: as §1, §2

G. vaginalis biofilm = assay: MBEC on pre-formed biofilms of ancestor isolates; type: cell-based, Gardnerella vaginalis; conditions: for Eradication of biofilm-grown cells (FIG. 1): G. vaginalis (ATCC14018), biofilm grown 40 h, treated 24 h
Experimental: as §1, §2

Gardnerella piotii = assay: MIC / MBC99.5 assessment in suspension; type: cell-based
Experimental: (§3) The minimum inhibitory concentration (MIC), which is a standard measure of the activity of antimicrobials, was determined according to the Clinical and Laboratory Standards Institute protocol (2018) Methods for Antimicrobial Susceptibility Testing of Anaerobic Bacteria (Carpenter et al., 2018). […] Controls for growth in the absence of antimicrobials were also included. OD600 was recorded by a microplate reader (Tecan, Grodig, Austria) after incubation at 37° C. for 48 h or, for some fast-growing strains, after incubation for 24 h. Absence of growth was defined as OD600≤0.14. […] MIC readout and MBC99.5 spotting were performed after 72 h incubation for H2B10B11.
(§4) However, topical intravaginal antibiotic administration is recommended for BV therapy, which allows to reach concentrations of active ingredients in the mg/mL range. […] Abbreviations: n.d., not determined; SJHB, St. Jan Hospital Bruges.
(§5) MIC90 is defined as the MIC value for 90% of the tested strains. For PM-477 (H2B10), the resistance breakpoint is not defined, therefore a “% resistant” is not defined (n.d.).

Gardnerella leopoldii = assay: MIC / MBC99.5 assessment in suspension; type: cell-based
Experimental: as §3, §4, §5

[1] = test system: G. vaginalis (ATCC 14018); assay: Bactericidal effect in suspension by quantitative plating, wild type and MDZ-passaged; type: cell-based, Gardnerella vaginalis; conditions: for reduction of a suspension of 108 CFU/mL: 10 μg/mL, 1 h
Experimental: Bacterial suspensions (OD600 of 0.1, corresponding to approximately 10^7-10^8 CFU/mL) were prepared by scraping the cells from confluently grown agar plates and diluting them into NYCB+10% HS, pH 5.5. Reactions were performed in triplicate by mixing ten μl of endolysin (200 μg/mL) with 90 μL bacterial suspension in the wells of a 96-well plate. Ten UL MES buffer without the endolysin was used as a control. […] Tenfold dilution series (10^−1 to 10^−6) of the cell reaction mixtures were prepared in NYCB+10% HS and 2 μL of each dilution were spotted onto Choc agar plates. After anaerobic incubation at 37° C. for 48 h, colonies were counted, CFU/mL calculated, and the log10 reduction compared to MES buffer treated control was determined.
All MICs determined after 48 h of incubation.

[2] = ancestor G. swidsinskii GS 9838-1, pre-formed biofilm
[3] = ancestor G. swidsinskii UGent BV 7.1, pre-formed biofilm
[4] = ancestor G. piotii UGent 18.01, pre-formed biofilm
[5] = ancestor G. piotii UGent 21.28, pre-formed biofilm
[6] = ancestor G. vaginalis UGent FB049, pre-formed biofilm
[7] = Gardnerella piotii, N=7 strains
[8] = Gardnerella leopoldii, N=3 strains

Molecule: Cc1ncc([N+](=O)[O-])n1CCO [MDZ, metronidazole]
- MBEC (G. swidsinskii biofilm; [2]): 32 µg/mL
- MBEC (G. swidsinskii biofilm; [3]): 32 µg/mL
- MBEC (G. piotii biofilm; [4]): 8 µg/mL
- MBEC (G. piotii biofilm; [5]): 8 to 32 µg/mL
- Eradication of biofilm-grown cells (FIG. 1) (G. vaginalis biofilm): can be eradicated
- MBEC (G. vaginalis biofilm; [6]): 2 to 8 µg/mL
- MIC (Gardnerella piotii; Gardnerella piotii, 48 h, read-out: MIC before passaging): 32 µg/mL (≈ 187 µM)
- MBC (Gardnerella piotii; Gardnerella piotii, G. piotii (BV049) UGent BV049.1): 32 µg/mL (≈ 187 µM)
- MBC (Gardnerella piotii; Gardnerella piotii, G. piotii (BV154) UGent BV154.1): 32 µg/mL (≈ 187 µM)
- MBC (Gardnerella piotii; Gardnerella piotii, G. piotii (FB041) UGent FB041): 64 µg/mL (≈ 374 µM)
- MIC (Gardnerella piotii; Gardnerella piotii, G. piotii (FB041) UGent FB041, suspension, read-out: MIC): 32 µg/mL (≈ 187 µM)
- MBC (Gardnerella piotii; Gardnerella piotii, G. piotii (Gp17) UGent 18.01(T)): 64 µg/mL (≈ 374 µM)
- MIC (Gardnerella piotii; Gardnerella piotii, G. piotii (Gp17) UGent 18.01(T), suspension, read-out: MIC): 32 µg/mL (≈ 187 µM)
- MIC (Gardnerella piotii; Gardnerella piotii, G. piotii (Gp22) UGent 21.28, suspension, read-out: MIC): 64 µg/mL (≈ 374 µM)
- MBC (Gardnerella piotii; Gardnerella piotii, G. piotii (P80275) UGent P80275): 64 µg/mL (≈ 374 µM)
- MIC (Gardnerella piotii; Gardnerella piotii, G. piotii (P80275) UGent P80275, suspension, read-out: MIC): 16 µg/mL (≈ 93.5 µM)
- N resistant (%) (Gardnerella piotii; Gardnerella piotii, N=7, resistance ≥32 μg/mL MDZ): 57%
- N resistant (Gardnerella piotii; Gardnerella piotii, N=7, resistance ≥32 μg/mL MDZ, ≥8 μg/mL CLI): 4
- MBC (Gardnerella piotii; Gardnerella piotii, G. piotii (BV140) UGent BV140.2): > 512 µg/mL
- MIC (Gardnerella leopoldii; Gardnerella leopoldii, G. leopoldii (BV217) UGent BV217.1, suspension, read-out: MIC): 256 µg/mL (≈ 1500 µM)
- N resistant (%) (Gardnerella leopoldii; Gardnerella leopoldii, N=3, resistance ≥32 μg/mL MDZ): 100%
- N resistant (Gardnerella leopoldii; Gardnerella leopoldii, N=3, resistance ≥32 μg/mL MDZ, ≥8 μg/mL CLI): 3
- MIC90 (Gardnerella leopoldii; Gardnerella leopoldii, N=3 strains, read-out: MIC90): > 256 µg/mL
- MBC (Gardnerella leopoldii; Gardnerella leopoldii, read-out: MBC99.5): 512 µg/mL (≈ 2990 µM)
- reduction compared to the buffer treated control ([1]; MDZ-passaged G. vaginalis (ATCC 14018), 2 mg/ml, 24 h): 2 log
- loss in viability ([1]; MDZ-passaged G. vaginalis (ATCC 14018), up to 2 mg/ml, 1 and 5 hours): without any loss in viability

B1: PM-477: genetically engineered recombinant Gardnerella-specific endolysin, amino acid sequence SEQ ID NO: 1, His-tag cleaved off (protein)
chain: SKRGIDVSEWQGDIDFNAVKASGVEFVIIRAGYGIGCKDKWFEQNYRKAKTCGLDVGAYWYSYANSGFEAAEEAQSCVNMLSGKSFEYPVYFDLEEKSQLNRGRAFCDSLITGFCNKLESCGYYAGFYTSLSTANNLVSAHVRNRYALWIAQWNTHCSYQGSYGLWQYSSSGSVPGVAGRVDMDYAYVDYPSIIKNVGLNGYKNGGSYTAPQISSIDEVAREVINGDWGNGNERKQRLTSAGYDYASVQNKVNELLGVKAYRKSVDELAREVIRGTWGNGSTRKQRLTQAGYDYNAVQKRVNELL
modifications: His-tag cleaved off; H2B10
- MBEC (G. swidsinskii biofilm; [2]): <2 µg/mL
- MBEC (G. swidsinskii biofilm; [3]): 32 µg/mL
- MBEC (G. piotii biofilm; [4]): 8 µg/mL
- MBEC (G. piotii biofilm; [5]): 2 to 8 µg/mL
- Eradication of biofilm-grown cells (FIG. 1) (G. vaginalis biofilm): can be eradicated
- MBEC (G. vaginalis biofilm; ancestor G. vaginalis ATCC14018, pre-formed biofilm, 24 h treatment): 32 µg/mL
- MBEC (G. vaginalis biofilm; ancestor G. vaginalis UGent 09.07, pre-formed biofilm): 16 µg/mL
- MBEC (G. vaginalis biofilm; ancestor G. vaginalis UGent BV50, pre-formed biofilm): 2 µg/mL
- MBEC (G. vaginalis biofilm; ancestor G. vaginalis UGent BV111.5, pre-formed biofilm): 8 to 32 µg/mL
- MBEC (G. vaginalis biofilm; [6]): 0.5 to 2 µg/mL
- MBC99.5 (Gardnerella piotii; G. piotii (BV049) UGent BV049.1): 1 µg/mL
- MIC (Gardnerella piotii; G. piotii (BV049) UGent BV049.1, suspension): 1 µg/mL
- MBC99.5 (Gardnerella piotii; G. piotii (BV140) UGent BV140.2): 2 µg/mL
- MIC (Gardnerella piotii; G. piotii (BV140) UGent BV140.2, suspension): 1 µg/mL
- MBC99.5 (Gardnerella piotii; G. piotii (BV154) UGent BV154.1): 1 µg/mL
- MIC (Gardnerella piotii; G. piotii (BV154) UGent BV154.1, suspension): 0.5 µg/mL
- MBC99.5 (Gardnerella piotii; G. piotii (FB041) UGent FB041): 1 µg/mL
- MIC (Gardnerella piotii; G. piotii (FB041) UGent FB041, suspension): 0.5 µg/mL
- MBC99.5 (Gardnerella piotii; G. piotii (Gp17) UGent 18.01(T)): 4 µg/mL
- MIC (Gardnerella piotii; G. piotii (Gp17) UGent 18.01(T), suspension): 1 µg/mL
- MBC99.5 (Gardnerella piotii; G. piotii (Gp22) UGent 21.28): 2 µg/mL
- MIC (Gardnerella piotii; G. piotii (Gp22) UGent 21.28, suspension): 1 µg/mL
- MBC99.5 (Gardnerella piotii; G. piotii (P80275) UGent P80275): 1 µg/mL
- MIC (Gardnerella piotii; G. piotii (P80275) UGent P80275, suspension): 0.5 µg/mL
- MIC before passaging (Gardnerella piotii; G. piotii (UGent 18.01T), 48 h incubation): 1 µg/mL
- MIC90 (Gardnerella piotii; [7]): 1 µg/mL
- MIC Range (Gardnerella piotii; [7]): 0.5 to 1 µg/mL
- MBC99.5 (Gardnerella leopoldii; G. leopoldii (BV13) UGent BV13.2): 2 µg/mL
- MIC (Gardnerella leopoldii; G. leopoldii (BV13) UGent BV13.2, suspension): 0.5 µg/mL
- MBC99.5 (Gardnerella leopoldii; G. leopoldii (BV217) UGent BV217.1): 1 µg/mL
- MIC (Gardnerella leopoldii; G. leopoldii (BV217) UGent BV217.1, suspension): 0.25 µg/mL
- MBC99.5 (Gardnerella leopoldii; G. leopoldii (Gl11) UGent 09.48): 0.5 µg/mL
- MIC (Gardnerella leopoldii; G. leopoldii (Gl11) UGent 09.48, suspension): 0.125 µg/mL
- MIC90 (Gardnerella leopoldii; [8]): 0.5 µg/mL
- MIC Range (Gardnerella leopoldii; [8]): 0.125 to 0.5 µg/mL
- reduction of a suspension of 108 CFU/mL ([1]; MDZ-passaged G. vaginalis (ATCC 14018)): 2.8 log units
- reduction of a suspension of 108 CFU/mL ([1]; ancestral G. vaginalis (ATCC 14018)): 3.0 log units
